{"source": "paper PMC5709738", "about": "(The EMBO Journal, 2017)", "key": {"[1]": {"molecular_target": "COMA-MIND (K. lactis COMA bound with MIND-C1) (Kluyveromyces lactis) (UniProt Q6CUE5)", "assay": "native MS; nanoflow electrospray of intact assemblies in 200 mM ammonium acetate pH 6.7-7.3 or 7.4; higher micromolar concentrations (COMA ~3 or ~6 uM; COMA-Nkp1-Nkp2 ~3 uM)"}, "S. cerevisiae clones": {"tested_on": "S. cerevisiae clones", "assay": "dilution-series growth assay on solid YPD agar with benomyl", "assay_type": "cell-based", "conditions": "20 μg/ml benomyl", "description": "For vegetative growth assays on solid agar, we serially diluted our mitotically cycling S. cerevisiae clone suspensions to an absorbance at 600 nm (A600) of 0.4, in 96‐well plates (Nunc; Thermo Fisher Scientific). From this suspension, we sequentially fourfold diluted suspensions with minimal synthetic complete medium row‐wise (Fig 8A and C; Appendix Fig S9A, B and E). We spotted S. cerevisiae suspensions with a sterilized 48‐head metal pinner (V & P Scientific, Inc.). We prepared our solid YPD agar that contained benomyl with a final concentration of 20 μg/ml benomyl (Sigma‐Aldrich). We did our growth experiments with S. cerevisiae clones that encode Mad1 fused to an auxin‐inducible degron (Appendix Fig S9E) on solid yeast‐extract peptone (YEP) agar with 2% (w/v) raffinose and 2% (w/v) galactose, and 1 mM of the synthetic auxin analogue 1‐napthylic acetic acid (NAA; Carl Roth), similarly as described (Nishimura et al, 2009). To prepare S. cerevisiae extracts for our Western blot that we show an image in Appendix Fig S9F, we grew cultures in YEP with 2% (w/v) raffinose and 2% (w/v) galactose to an A600 of 0.3. After the addition of NAA to a concentration of 1 mM, we collected cells from cultures after specific time points (Appendix Fig S9F) by centrifugation."}, "[2]": {"molecular_target": "COMA (K. lactis, full length: Ame1, Ctf19, Mcm21, Okp1) (Kluyveromyces lactis) (UniProt Q6CUE5)", "assay": "SEC-MALS; COMA injected at ~43 uM (COMA dimer) on Superdex 200 10/300; max. dimeric COMA concentration in the principal peak 2.4 uM"}, "[3]": {"molecular_target": "COMA (K. lactis, full length: Ame1, Ctf19, Mcm21, Okp1) (Kluyveromyces lactis) (UniProt Q6CUE5)", "assay": "native MS; nanoflow electrospray of intact assemblies in 200 mM ammonium acetate pH 6.7-7.3 or 7.4; higher micromolar concentrations (COMA ~3 or ~6 uM; COMA-Nkp1-Nkp2 ~3 uM)"}, "[4]": {"molecular_target": "T1, full-length Ctf19-Mcm21 (K. lactis) (Kluyveromyces lactis, UniProt Q6CRN7 1-270; Q6CVQ9 1-293)", "T1 chain 1": "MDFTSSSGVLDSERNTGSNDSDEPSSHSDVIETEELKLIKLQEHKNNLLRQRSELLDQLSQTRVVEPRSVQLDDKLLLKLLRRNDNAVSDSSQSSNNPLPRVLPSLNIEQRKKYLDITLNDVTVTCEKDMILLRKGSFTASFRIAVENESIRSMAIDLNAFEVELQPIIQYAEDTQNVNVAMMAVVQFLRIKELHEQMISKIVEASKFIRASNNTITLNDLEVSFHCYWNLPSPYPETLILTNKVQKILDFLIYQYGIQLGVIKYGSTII", "T1 chain 2": "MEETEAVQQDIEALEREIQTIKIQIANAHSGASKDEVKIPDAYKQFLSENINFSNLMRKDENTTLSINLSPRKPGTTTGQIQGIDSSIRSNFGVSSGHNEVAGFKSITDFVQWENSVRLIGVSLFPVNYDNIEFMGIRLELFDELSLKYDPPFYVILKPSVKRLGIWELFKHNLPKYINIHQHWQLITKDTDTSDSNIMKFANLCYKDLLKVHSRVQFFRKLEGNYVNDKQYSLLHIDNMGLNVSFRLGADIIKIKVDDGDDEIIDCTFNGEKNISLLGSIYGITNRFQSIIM", "assay": "MST"}}}
{"molecule": "COMA-MIND (K. lactis COMA bound with MIND-C1) (from UniProt Q6CUE5 1-292; Q6CRN7 1-270; Q6CVQ9 1-293; Q6CJY0 1-383) (complex)", "values": [{"measurement": "stoichiometry N", "setting": "[1]", "result": 2}]}
{"molecule": "CCCCNC(=O)n1c(NC(=O)OC)nc2ccccc21", "note": "[benomyl]", "values": [{"measurement": "benomyl sensitivity (growth)", "setting": "S. cerevisiae clones; Okp1_cmΔ and Okp1_cmΔnnΔ mutants, solid YPD agar, elevated temperature", "result": "sensitive to benomyl"}, {"measurement": "growth in the presence of benomyl", "setting": "S. cerevisiae clones; Okp1_cmΔ cnn1Δ mutant compared with Okp1_cmΔ or cnn1Δ, 37°C", "result": "reduced growth"}]}
{"molecule": "COMA (K. lactis, full length: Ame1, Ctf19, Mcm21, Okp1) (from UniProt Q6CUE5 1-292; Q6CRN7 1-270; Q6CVQ9 1-293; Q6CJY0 1-383) (complex)", "values": [{"measurement": "stoichiometry N", "setting": "[2]", "result": 2}, {"measurement": "stoichiometry N", "setting": "[3]", "result": 2}]}
{"molecule": "SNEIYQQDKIAANLKLKTDF (synthetic peptide; terminal chemistry not stated)", "note": "[D328A-F329A]", "values": [{"measurement": "Kd", "setting": "[4]", "result": 64, "unit": "µM"}]}
